The target in this assay is human plasmin (human) (UniProt P00747). Briefly: display phage binding to immobilised protease; this row is the reference taken as unit.
human plasmin (human), sequence (P00747 97-810 limits assumed): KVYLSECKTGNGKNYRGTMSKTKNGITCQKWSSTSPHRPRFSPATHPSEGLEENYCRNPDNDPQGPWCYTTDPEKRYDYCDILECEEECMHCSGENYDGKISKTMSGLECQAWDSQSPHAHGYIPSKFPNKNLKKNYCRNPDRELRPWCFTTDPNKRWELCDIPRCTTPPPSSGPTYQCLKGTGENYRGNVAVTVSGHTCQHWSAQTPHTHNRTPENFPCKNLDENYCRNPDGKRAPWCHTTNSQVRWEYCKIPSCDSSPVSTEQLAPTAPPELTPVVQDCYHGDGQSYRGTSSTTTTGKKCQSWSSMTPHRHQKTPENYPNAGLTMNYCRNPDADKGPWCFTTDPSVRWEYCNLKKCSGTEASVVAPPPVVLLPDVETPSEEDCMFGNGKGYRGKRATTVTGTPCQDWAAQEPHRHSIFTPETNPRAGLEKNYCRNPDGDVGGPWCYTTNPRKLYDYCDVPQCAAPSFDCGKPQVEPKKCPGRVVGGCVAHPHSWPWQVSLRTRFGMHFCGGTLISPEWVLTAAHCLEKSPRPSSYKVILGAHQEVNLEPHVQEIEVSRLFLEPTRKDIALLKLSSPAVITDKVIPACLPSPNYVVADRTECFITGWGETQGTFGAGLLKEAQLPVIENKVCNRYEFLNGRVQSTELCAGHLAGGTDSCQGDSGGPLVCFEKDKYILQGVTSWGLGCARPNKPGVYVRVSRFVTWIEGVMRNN

Take “LACI-K1 (first Kunitz domain of human lipoprotein-associated coagulation inhibitor) (from UniProt P10646 50-107)”: the relative binding (LACI-K1 phage = unit) (fold of LACI-K1 phage) amounted to 1.

For the origin of these results see US20090036365A1.
